Data set [1] concerns the target T1, LexR (Lysobacter antibioticus OH13, UniProt A0A0S2F3V0 1-384).
T1 sequence: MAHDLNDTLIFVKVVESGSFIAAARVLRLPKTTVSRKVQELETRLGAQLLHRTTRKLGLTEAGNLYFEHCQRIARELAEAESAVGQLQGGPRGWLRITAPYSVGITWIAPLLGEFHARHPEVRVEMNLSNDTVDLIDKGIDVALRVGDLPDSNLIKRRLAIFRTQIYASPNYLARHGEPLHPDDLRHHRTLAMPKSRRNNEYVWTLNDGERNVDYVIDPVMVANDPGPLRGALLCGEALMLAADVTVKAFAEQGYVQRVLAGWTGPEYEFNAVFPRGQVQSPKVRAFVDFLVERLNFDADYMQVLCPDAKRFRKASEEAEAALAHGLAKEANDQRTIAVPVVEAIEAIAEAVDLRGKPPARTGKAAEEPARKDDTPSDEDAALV
Briefly: EMSA; EMSA (LightShift kit): 1x binding buffer, 50 ng/uL poly(dI-dC), 2.5% glycerol, 5 mM MgCl (so in the source), 0.05% NP-40, 5 fmol labeled probe in 20 uL, 30 min, room. The note with it: protein: recombinant; tags: His6 (pET-28a, BamHI/EcoRI); chain copies: 2; label: 5' biotin; blunt. (In EMSA bound probe runs differently from free probe, usually more slowly.)

Data set [2] deals with T1, LexR. Briefly: EMSA; no myxin; EMSA (LightShift kit): 1x binding buffer, 50 ng/uL poly(dI-dC), 2.5% glycerol, 5 mM MgCl (so in the source), 0.05% NP-40, 5 fmol labeled probe in 20 uL, 30 min, room. The note with it: protein: recombinant; tags: His6 (pET-28a, BamHI/EcoRI); chain copies: 2; label: 5' biotin; blunt.
Data set [3] concerns the target T1, LexR. Nature of the data set: competition; unlabeled competitor vs biotin-lex probe; EMSA (LightShift kit): 1x binding buffer, 50 ng/uL poly(dI-dC), 2.5% glycerol, 5 mM MgCl (so in the source), 0.05% NP-40, 5 fmol labeled probe in 20 uL, 30 min, room. The note with it: protein: recombinant; tags: His6 (pET-28a, BamHI/EcoRI); chain copies: 2; label: none; blunt.

B1: probe 4 (probe 3 with putative LexR site) (dsDNA)
DNA 1: GGCTCCGCGCCTGCCAGCATAATTGTTCGTTGTCTGGGGGCTAGGGCGAGACACCCGC
DNA 2: GCGGGTGTCTCGCCCTAGCCCCCAGACAACGAACAATTATGCTGGCAGGCGCGGAGCC
B1: the binding result in the data set with LexR [1] was “no binding”.

B2: lex probe (165 bp) (dsDNA)
DNA 1: ATGGGAGAAACGCGAATCGGGCTTGTCGGGGGCTCAACATGGCGGGGGGCCTCGTGTCGATCTGCGGCAAAGAGTAGAGAGATGGACGGCACTTGATTAGCCACTGATTCAGGGAATAATTGTCCCGACATCGGGCCAATGCCCTCTCTGCCTCCTTGAATGCCC
DNA 2: GGGCATTCAAGGAGGCAGAGAGGGCATTGGCCCGATGTCGGGACAATTATTCCCTGAATCAGTGGCTAATCAAGTGCCGTCCATCTCTCTACTCTTTGCCGCAGATCGACACGAGGCCCCCCGCCATGTTGAGCCCCCGACAAGCCCGATTCGCGTTTCTCCCAT
As for B2, the binding result with LexR [2] was “binds”.

B3: unlabeled lex probe (165 bp) (dsDNA)
DNA 1: ATGGGAGAAACGCGAATCGGGCTTGTCGGGGGCTCAACATGGCGGGGGGCCTCGTGTCGATCTGCGGCAAAGAGTAGAGAGATGGACGGCACTTGATTAGCCACTGATTCAGGGAATAATTGTCCCGACATCGGGCCAATGCCCTCTCTGCCTCCTTGAATGCCC
DNA 2: GGGCATTCAAGGAGGCAGAGAGGGCATTGGCCCGATGTCGGGACAATTATTCCCTGAATCAGTGGCTAATCAAGTGCCGTCCATCTCTCTACTCTTTGCCGCAGATCGACACGAGGCCCCCCGCCATGTTGAGCCCCCGACAAGCCCGATTCGCGTTTCTCCCAT
As for B3, the binding result with LexR [3] is given as “binds”.

B4: probe 2 (50 bp, 8-bp site deleted) (dsDNA)
DNA 1: ACTTGATTAGCCACTGATTCAGGGACCCGACATCGGGCCAATGCCCTCTC
DNA 2: GAGAGGGCATTGGCCCGATGTCGGGTCCCTGAATCAGTGGCTAATCAAGT
On to B4, for which the binding result in the data set with LexR [1] is on record as “no binding”.

B5: probe 1 (58 bp) (dsDNA)
DNA 1: ACTTGATTAGCCACTGATTCAGGGAATAATTGTCCCGACATCGGGCCAATGCCCTCTC
DNA 2: GAGAGGGCATTGGCCCGATGTCGGGACAATTATTCCCTGAATCAGTGGCTAATCAAGT
For B5, in the data set with LexR [1], the binding result is “binds”.

B6: control probe (158 bp) (dsDNA)
DNA 1: ATGCGCCTCGCGATCAACACGGTCGCATCCCCTCTTTGCCAGCCACGGCTCCGCGCCTGCCAGCTTCTTTTTTCGTTGTCTGGGGGCTAGGGCGAGACACCCGCATACCGATGACTTCGTCGGCAGTGGCCCAAGACGGATTGCGTAGTGCGCCTACG
DNA 2: CGTAGGCGCACTACGCAATCCGTCTTGGGCCACTGCCGACGAAGTCATCGGTATGCGGGTGTCTCGCCCTAGCCCCCAGACAACGAAAAAAGAAGCTGGCAGGCGCGGAGCCGTGGCTGGCAAAGAGGGGATGCGACCGTGTTGATCGCGAGGCGCAT
For the molecule B6, in the data set with LexR [1], the binding result was “no binding”.

The record behind these values is publication PMC10269722, “LexR Positively Regulates the LexABC Efflux Pump Involved in Self-Resistance to the Antimicrobial Di-N-Oxide Phenazine in Lysobacter antibioticus”.
